In PMC6853915 (Scientific Reports, 2019):

Assays:
Settings in all cases: both partners purified
[1] = target: T1, 17beta-hydroxysteroid dehydrogenase type 10 (human, UniProt Q99714 1-261); experiment: SPR; cypD held on immobilised Ab(cypD); 100 nM 17β-HSD10 flowed for 7 min; 10 mM HEPES, 200 μg/ml BSA, 5 mM Na+, pH 7.4 or 7.8, with K+ (up to 140 mM), Mg2+ or Ca2+ (up to 2.5 mM) alone or K+ and Mg2+ combined; 25 °C; reference channel without cypD
T1 construct: the oligomeric state was not measured; also called 17β-HSD10; 17beta-hydroxysteroide dehydrogenase 10; source: bought: Fitzgerald, USA (human, recombinant)
T1 sequence (looked up): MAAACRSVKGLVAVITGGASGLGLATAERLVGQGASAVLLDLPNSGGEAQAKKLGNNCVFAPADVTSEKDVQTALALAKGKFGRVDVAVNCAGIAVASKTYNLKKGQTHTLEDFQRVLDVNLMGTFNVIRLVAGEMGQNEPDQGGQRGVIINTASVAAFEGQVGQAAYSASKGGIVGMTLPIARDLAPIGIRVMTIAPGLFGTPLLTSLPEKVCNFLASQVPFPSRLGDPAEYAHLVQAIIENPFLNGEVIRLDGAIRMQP

amyloid-β peptide 1–40 = target: T2, amyloid-β peptide 1–40 (human, UniProt P05067 672-711); experiment: SPR; cypD held on immobilised Ab(cypD); 17β-HSD10 (100 nM), Aβ1–40 or Aβ1–42 (50-1000 nM, mostly 500 nM) or their mixtures, incubated at 37 °C beforehand (1 hour; or Aβ alone 0-180 min, then 10 min with 17β-HSD10), flowed for 7 or 10 min; HEPES_FINAL (10 mM HEPES, 200 μg/ml BSA, 5 mM Na+, 15 mM K+, 0.1 mM Mg2+, pH 7.4); 25 °C
T2 construct: amyloid-β peptide, residues 1-40 (40 aa), human, cut product of the amyloid precursor protein; numbers count on: the Aβ peptide; The authors take it to stay monomeric under the conditions used; also called Aβ1–40; Aβ_(1–40); source: synthetic peptide; bought: AnaSpec, USA

amyloid-β peptide 1–42 = target: T3, amyloid-β peptide 1–42 (human, UniProt P05067 672-713); experiment: as above
T3 construct: amyloid-β peptide, residues 1-42 (42 aa), human, cut product of the amyloid precursor protein; numbers count on: the Aβ peptide; Incubated at 37 °C before injection; the authors take it to form oligomers of a size that was not measured; also called Aβ1–42; Aβ_(1–42); source: synthetic peptide; bought: AnaSpec, USA

Measured: binding result

T2 sequence (P05067 672-711): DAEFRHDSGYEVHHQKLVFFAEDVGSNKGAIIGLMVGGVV
T3 sequence (P05067 672-713): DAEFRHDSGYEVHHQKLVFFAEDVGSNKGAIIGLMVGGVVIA

B1: cyclophilin D (enzyme)
chain: not shown
notes: cyclophilin D (cypD), human, recombinant; Held on the chip through an immobilised antibody against cypD; also called cypD; source: bought: Fitzgerald, USA (human, recombinant)
binds: all assays above
